Experimental data from publication PMC3901001.

Target: full-length human α isoform of CaMKII (CaMKIIα), wild type (human) (UniProt Q9UQM7)
Assay: single-molecule TIRF colocalisation; mixed with ATP in the absence of Ca2+/CaM (37°C by the DLS legend)

Chain of UniProt Q9UQM7 (Q9UQM7 whole entry, canonical isoform): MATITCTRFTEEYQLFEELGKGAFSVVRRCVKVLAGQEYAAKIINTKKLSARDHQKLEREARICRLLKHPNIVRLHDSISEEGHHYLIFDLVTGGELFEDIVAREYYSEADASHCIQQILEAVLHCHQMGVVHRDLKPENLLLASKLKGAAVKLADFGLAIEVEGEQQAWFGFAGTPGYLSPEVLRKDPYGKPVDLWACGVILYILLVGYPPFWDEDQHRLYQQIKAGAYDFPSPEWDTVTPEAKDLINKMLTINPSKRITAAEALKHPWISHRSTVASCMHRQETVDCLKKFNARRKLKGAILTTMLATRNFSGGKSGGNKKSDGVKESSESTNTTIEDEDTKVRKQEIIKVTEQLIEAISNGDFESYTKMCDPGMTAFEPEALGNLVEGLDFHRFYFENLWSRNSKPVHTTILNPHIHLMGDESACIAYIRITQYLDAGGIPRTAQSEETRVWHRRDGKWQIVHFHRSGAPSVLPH

percent colocalisation (plateau): 60%
Substance: CaMKII^T286D, constitutively active mutant of full-length human CaMKIIα (enzyme)
